How the values were obtained:
[1] = biological target: Cyno Complement C5 Protein (cynomolgous macaque)
[2] = biological target: Human Complement C5 Protein (human) (UniProt P01031)
[3] = biological target: Mouse Complement C5 Protein (mouse) (UniProt P06684)

recombinant C5 inhibitor (C5I) protein (from UniProt Q5YD59 19-168)
Kd [1]: 5.09 nM
Kd [2]: 10.2 nM
Kd [3]: 6.28 nM
